For orientation: stoichiometry N means a count of units in the complex or per binding partner.

Results on four molecules are retold here after article PMC7544224 (Nucleic Acids Research, 2020).

The series “SEC-MALS” concerns the molecule itself. The experiment in a line: SEC-MALS. On the technique in general: SEC sorts molecules by how far they enter the pores of the column.
Series [1] concerns the target T1, YefM (antitoxin; in heterohexamer, YoeB2-YefM4);YoeB (toxin; in heterohexamer, YoeB2-YefM4) (Staphylococcus aureus …, UniProt Q2G285;Q2G286 1-83;1-88, |).
T1 sequence 1: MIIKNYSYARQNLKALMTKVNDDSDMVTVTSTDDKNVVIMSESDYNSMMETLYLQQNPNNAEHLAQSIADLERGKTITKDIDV
T1 sequence 2: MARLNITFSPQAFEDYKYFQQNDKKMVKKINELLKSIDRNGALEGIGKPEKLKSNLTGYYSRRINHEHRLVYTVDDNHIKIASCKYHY
The experiment in a line: ITC. In general terms: ITC needs no label: the signal is the heat of the interaction.

Series [2] addresses T2, YefM antitoxin without tag (pET22b-yefM), as in the heterohexamer (S. aureus (NCTC8325 strain), UniProt A0A0B4ND47 1-83).
T2 sequence (looked up): T1 sequence 1
The experiment in a line: SEC-MALS.

Positions count from the first letter of the chain named.

B1: YefM antitoxin, expressed alone (natural protein, S. aureus (NCTC8325 strain), UniProt A0A0B4ND47 1-83, looked up)
chain: T1 sequence 1
With B1, the “stoichiometry N” value in the series “SEC-MALS” was found to be 2.

B2: promoter flank mutant (ATTGTACA to AGCGTACG) (dsDNA)
DNA 1: TTAGCGTACGGATATGCGTACGCTTG
DNA 2: CAAGCGTACGCATATCCGTACGCTAA
For the molecule B2, the binding result in series [1] is on record as “no binding”.

B3: YoeB toxin with N-terminal 6xHis tag (pET28a-yoeB) (natural protein)
chain: T1 sequence 2 with D23N
B3: in series [2], the “stoichiometry N” value was 0.5 YoeB per YefM.

B4: promoter core mutant (ATTGTACA to ATTTTAAA) (dsDNA)
DNA 1: TTATTTTAAAGATATTTTTAAAATTG
DNA 2: CAATTTTAAAAATATCTTTAAAATAA
On to B4, for which the binding result in series [1] is “no binding”.
